We go through four variants from IntAct's records for PubMed 19468302.

Sequences and labels used below:
B1: Rac GTPase-activating protein 1 (Homo sapiens), Q9H0H5 (parent)
chain: MDTMMLNVRNLFEQLVRRVEILSEGNEVQFIQLAKDFEDFRKKWQRTDHELGKYKDLLMKAETERSALDVKLKHARNQVDVEIKRRQRAEADCEKLERQIQLIREMLMCDTSGSIQLSEEQKSALAFLNRGQPSSSNAGNKRLSTIDESGSILSDISFDKTDESLDWDSSLVKTFKLKKREKRRSTSRQFVDGPPGPVKKTRSIGSAVDQGNESIVAKTTVTVPNDGGPIEAVSTIETVPYWTRSRRKTGTLQPWNSDSTLNSRQLEPRTETDSVGTPQSNGGMRLHDFVSKTVIKPESCVPCGKRIKFGKLSLKCRDCRVVSHPECRDRCPLPCIPTLIGTPVKIGEGMLADFVSQTSPMIPSIVVHCVNEIEQRGLTETGLYRISGCDRTVKELKEKFLRVKTVPLLSKVDDIHAICSLLKDFLRNLKEPLLTFRLNRAFMEAAEITDEDNSIAAMYQAVGELPQANRDTLAFLMIHLQRVAQSPHTKMDVANLAKVFGPTIVAHAVPNPDPVTMLQDIKRQPKVVERLLSLPLEYWSQFMMVEQENIDPLHVIENSNAFSTPQTPDIKVSLLGPVTTPEHQLLKTPSSSSLSQRVRSTLTKNTPRFGSKSKSATNLGRQGNFFASPMLK
B2: Rac GTPase-activating protein 1 (Homo sapiens), Q9H0H5 (parent)
chain: B1 chain
partner: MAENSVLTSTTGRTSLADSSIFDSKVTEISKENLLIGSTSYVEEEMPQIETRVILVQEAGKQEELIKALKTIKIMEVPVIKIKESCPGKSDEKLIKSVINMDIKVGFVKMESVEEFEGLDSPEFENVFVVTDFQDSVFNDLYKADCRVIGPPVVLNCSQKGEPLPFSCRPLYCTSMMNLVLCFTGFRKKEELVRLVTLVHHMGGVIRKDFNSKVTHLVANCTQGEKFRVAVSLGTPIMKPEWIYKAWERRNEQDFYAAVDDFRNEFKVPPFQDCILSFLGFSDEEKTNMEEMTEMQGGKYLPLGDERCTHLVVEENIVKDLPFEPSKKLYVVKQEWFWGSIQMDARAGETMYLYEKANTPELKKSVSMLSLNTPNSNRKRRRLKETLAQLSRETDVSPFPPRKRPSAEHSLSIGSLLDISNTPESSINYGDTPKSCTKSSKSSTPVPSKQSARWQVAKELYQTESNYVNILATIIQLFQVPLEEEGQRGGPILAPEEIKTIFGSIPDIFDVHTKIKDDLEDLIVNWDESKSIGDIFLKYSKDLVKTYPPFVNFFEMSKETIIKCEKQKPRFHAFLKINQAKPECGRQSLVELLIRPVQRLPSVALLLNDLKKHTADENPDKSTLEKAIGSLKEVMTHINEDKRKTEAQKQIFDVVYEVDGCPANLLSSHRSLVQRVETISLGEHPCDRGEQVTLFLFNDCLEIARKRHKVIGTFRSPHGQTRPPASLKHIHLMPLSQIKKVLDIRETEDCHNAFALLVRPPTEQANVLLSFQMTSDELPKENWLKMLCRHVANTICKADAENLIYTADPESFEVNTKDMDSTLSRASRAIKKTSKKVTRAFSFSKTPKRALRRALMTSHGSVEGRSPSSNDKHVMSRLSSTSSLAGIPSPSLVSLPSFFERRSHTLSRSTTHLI

The variants in one assay derive from B1. The settings on record: with plk1_human PLK1, P53350.
Chain of plk1_human PLK1, P53350 (P53350 whole entry): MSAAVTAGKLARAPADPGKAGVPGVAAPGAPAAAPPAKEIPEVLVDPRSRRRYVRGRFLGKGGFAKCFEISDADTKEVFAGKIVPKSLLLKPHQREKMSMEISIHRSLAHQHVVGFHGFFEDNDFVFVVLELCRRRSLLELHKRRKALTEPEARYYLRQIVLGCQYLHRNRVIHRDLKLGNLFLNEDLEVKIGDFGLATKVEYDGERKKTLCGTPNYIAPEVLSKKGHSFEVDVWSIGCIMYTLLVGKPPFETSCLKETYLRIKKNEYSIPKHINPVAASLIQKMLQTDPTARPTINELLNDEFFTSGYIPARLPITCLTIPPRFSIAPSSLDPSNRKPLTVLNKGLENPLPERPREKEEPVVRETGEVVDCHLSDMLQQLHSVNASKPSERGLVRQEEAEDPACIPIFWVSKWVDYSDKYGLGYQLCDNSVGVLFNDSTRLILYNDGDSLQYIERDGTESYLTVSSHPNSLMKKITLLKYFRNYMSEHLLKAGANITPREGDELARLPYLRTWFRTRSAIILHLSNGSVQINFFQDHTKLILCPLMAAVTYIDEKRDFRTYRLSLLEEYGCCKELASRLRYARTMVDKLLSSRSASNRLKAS
In the case of S157A;S164A;S170A;S214A;T260A, the “effect of a mutation on the interaction” value was “decreasing interaction strength”.

The variants in the next assay derive from B2. The settings on record: with ect2_human ECT2, Q9H8V3.
In the case of S157A, the “effect of a mutation on the interaction” value is listed as “decreasing interaction”. The same measure, in the same setting: the entry for S157A;S164A;S170A is “disrupting interaction”; for S157A;S164A;S170A;S214A;T260A it is “decreasing interaction strength”.
